The record followed here is patent US20100291682, “SYSTEM FOR TRANSPOSING HYPERACTIVE RECOMBINANT DERIVATIVES OF MOS-1 TRANSPOSON” (published 2010).

Assay in all cases: cell_activity; 3T46 transposition in E. coli T5 vs 3T3/WT
Holding throughout (conditions): chain copies: 2

In one data set the target is T1, Mos-1 transposase TY (Drosophila mauritiana, UniProt Q7JQ07 SEQ:1-345, T216A,Y237C).
T1 sequence: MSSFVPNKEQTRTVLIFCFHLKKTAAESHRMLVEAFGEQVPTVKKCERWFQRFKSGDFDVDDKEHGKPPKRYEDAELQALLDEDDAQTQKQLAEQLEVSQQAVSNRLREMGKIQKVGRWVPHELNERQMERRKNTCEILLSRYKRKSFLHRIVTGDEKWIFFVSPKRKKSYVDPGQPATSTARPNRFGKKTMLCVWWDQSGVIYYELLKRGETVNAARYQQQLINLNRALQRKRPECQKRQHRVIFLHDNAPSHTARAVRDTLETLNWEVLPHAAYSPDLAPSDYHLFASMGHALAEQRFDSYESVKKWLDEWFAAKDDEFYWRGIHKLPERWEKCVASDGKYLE
Here is the method:
(§1) Escherichia coli JM109 bacteria were co-transformed with the pBC 3T3 plasmid (comprising a transposition reporter 2 ITR 3′ mariner-like element and the chloramphenicol resistance gene) and with the inducible vector encoding for the transposase (pKK-Tnp or pMal-Tnp) comprising the ampicillin resistance gene. The bacteria selection was performed on ampicillin (100 μg/ml) and chloramphenicol in order to verify the presence of the two plasmids.
(§2) The JM109 bacteria containing both the pBC 3T3 plasmid and the pKK-Tnp (or pMalC2X-Tnp) plasmid were placed in culture for 1 hr at 37° C. in 250 μl of LB. This inoculum was then poured into 5 ml of LB supplemented with 1 mM IPTG. The culture was titrated on LB plates (100 μl of a 1/1000 dilution) and on LB-Tet plates (12.5 μg/ml) (250 μl of the non-diluted culture). The culture induced by IPTG was then cultured for 5 hours at 32° C. (optimal temperature of transposase) under stirring (250 rpm). The bacterial suspension was then titrated on LB plates (100 μl of a 1/250,000 dilution) and on LB-tet plates (100 μl of the undiluted bacterial suspension). The plates were placed at 37° C. overnight. The following day, the colonies were counted on LB and LB-Tet plates, and the transposition frequency (equal to the number of tetracycline bacteria over the number of bacterial per 1 ml of undiluted bacterial suspension) was calculated.
(§3) In order to evaluate the transposition efficiency of systems associating a hyperactive transposase and a pseudo-transposon that is also hyperactive, various combinations were tested in the transposition test in bacteria described in part I, paragraph I-B above.

For a further data set, the target named is T2, Mos-1 transposase QY (Drosophila mauritiana, UniProt Q7JQ07 SEQ:1-345, Q91R,Y237C).
T2 sequence: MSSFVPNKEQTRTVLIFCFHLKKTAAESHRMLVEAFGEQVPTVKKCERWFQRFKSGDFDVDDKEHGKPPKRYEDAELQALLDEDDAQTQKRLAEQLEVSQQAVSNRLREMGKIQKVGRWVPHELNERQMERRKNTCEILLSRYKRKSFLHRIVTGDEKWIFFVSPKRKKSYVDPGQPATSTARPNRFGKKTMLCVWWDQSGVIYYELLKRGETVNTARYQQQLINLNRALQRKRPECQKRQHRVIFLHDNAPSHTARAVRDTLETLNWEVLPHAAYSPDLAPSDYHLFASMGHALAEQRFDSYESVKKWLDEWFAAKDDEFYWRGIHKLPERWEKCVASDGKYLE
Here is the method:
as §1, §2, §3

Another data set deals with T3, Mos-1 transposase FTY (Drosophila mauritiana, UniProt Q7JQ07 SEQ:1-345, F53Y,T216A,Y237C).
T3 sequence: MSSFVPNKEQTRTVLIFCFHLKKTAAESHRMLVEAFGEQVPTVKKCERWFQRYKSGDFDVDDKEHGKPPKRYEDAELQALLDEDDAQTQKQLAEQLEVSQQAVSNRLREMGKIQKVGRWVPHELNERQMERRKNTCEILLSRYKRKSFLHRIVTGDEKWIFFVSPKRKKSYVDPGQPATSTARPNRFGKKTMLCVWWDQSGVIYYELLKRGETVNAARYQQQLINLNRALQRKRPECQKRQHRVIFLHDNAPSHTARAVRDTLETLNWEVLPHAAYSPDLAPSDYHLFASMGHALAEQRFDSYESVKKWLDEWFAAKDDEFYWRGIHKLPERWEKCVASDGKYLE
Here is the method:
as §1, §2, §3

For another data set, the target named is T4, Mos-1 transposase FQETY (Drosophila mauritiana, UniProt Q7JQ07 SEQ:1-345, F53Y,Q91R,E137K,T216A,Y237C).
T4 sequence: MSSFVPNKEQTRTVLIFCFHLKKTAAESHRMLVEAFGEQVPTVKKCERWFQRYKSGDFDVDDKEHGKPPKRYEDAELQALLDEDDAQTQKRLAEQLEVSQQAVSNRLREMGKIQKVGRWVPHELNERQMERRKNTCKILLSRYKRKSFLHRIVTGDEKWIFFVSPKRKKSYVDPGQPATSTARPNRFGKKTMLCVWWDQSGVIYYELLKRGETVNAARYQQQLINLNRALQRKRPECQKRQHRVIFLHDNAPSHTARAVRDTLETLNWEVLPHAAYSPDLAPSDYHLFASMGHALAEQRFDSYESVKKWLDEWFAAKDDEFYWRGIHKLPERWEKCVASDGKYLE
Here is the method: as §1, §2, §3

A further data set addresses T5, Mos-1 transposase ET (Drosophila mauritiana, UniProt Q7JQ07 SEQ:1-345, E137K,T216A).
T5 sequence: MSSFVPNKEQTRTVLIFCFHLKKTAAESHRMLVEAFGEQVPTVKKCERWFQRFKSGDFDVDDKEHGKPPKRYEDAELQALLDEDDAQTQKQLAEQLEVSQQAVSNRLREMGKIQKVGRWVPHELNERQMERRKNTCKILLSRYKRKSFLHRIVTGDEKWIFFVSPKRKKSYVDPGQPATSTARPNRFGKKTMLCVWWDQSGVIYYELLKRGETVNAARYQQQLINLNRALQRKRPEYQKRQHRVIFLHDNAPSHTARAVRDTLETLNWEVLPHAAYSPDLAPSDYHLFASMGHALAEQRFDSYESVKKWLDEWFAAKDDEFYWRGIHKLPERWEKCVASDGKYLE
Here is the method: as §1, §2, §3

B1: ITR46 (dsDNA)
DNA 1: TCAGGTGTACAAGTATGAGATGTCGTTT
DNA 2: AAACGACATCTCATACTTGTACACCTGA
On to B1, for which the activity with Mos-1 transposase TY was 61.8 fold; in the data set with Mos-1 transposase QY, 1.7 fold; in the data set with Mos-1 transposase FTY, 19.4 fold; in the data set with Mos-1 transposase FQETY it was 2.3 fold; with Mos-1 transposase ET, 6.7 fold.
